Measurements taken from the supplement of paper PMC10567573.

B1: ZBTB22 (parent)
chain: HTGLKPYECGVCAKKFMWRDSFMR
B2: TOR1AIP2 (parent)
chain: DGAGRTWQDSDTVKLLVDLELSYG

Variants of: B1
Assay: protein stability index of a GFP-peptide fusion (GPS, HEK-293T) (PSI 1-6); higher = more stable
Conditions: c terminus: a fixed tail appended
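Note: lentivirally expressed fusions sorted by FACS into six bins by GFP to DsRed ratio, PSI derived from sequencing read proportions per bin multiplied by bin number.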

Protein stability index: each site, then its substitutions
H1: D 1.45 | I 2.85 | S 1.92 | F 1.76 | Q 2.71 | T 2.24 | C 1.3 | A 3.04
L4: I 2.75 | C 1.64 | N 1.37 | D 2.32 | Y 3.37 | M 1.93 | H 2.07 | G 1.92 | V 3.58 | E 1.86 | A 1.62 | F 2.27 | S 4.46
Y7: C 2.68 | G 2.84 | A 2.64 | S 1.97 | Q 1.77 | I 3.53 | F 2.27 | L 2.73 | K 3.09 | M 2.08 | P 1.34 | E 1.3 | T 3.12 | V 1.67 | D 1.82 | N 2.43
T2: R 2.38 | N 2.28 | Y 2.79 | C 3.8 | K 2.14 | E 2.67 | P 2.72 | D 3.09 | F 4.25 | M 1.17 | G 1.74
E8: D 2.94 | C 1.96
P6: R 2.1 | D 1.82 | Y 2.11 | V 1.1 | K 3.36 | N 1.65 | I 1.45 | M 2.6 | L 2.99 | E 2.97 | A 3.44 | T 2.99 | H 2.3 | F 2.28 | Q 2.26 | S 2.62
K5: L 1.92 | S 1.96 | D 3.82 | C 2.43 | I 2.05 | P 1.62 | R 2.38 | F 2.66 | M 2.73 | N 1.56
G3: V 3.07 | L 1.69 | P 4.19 | Q 1.52 | I 2.91 | C 2.47 | E 3.34 | S 2.62 | K 2.3 | A 2.15 | T 2.23 | N 3.32 | D 1.36

Variants of: B2
Assay: as above
Conditions: c terminus: a fixed tail appended

Protein stability index, by site and new letter:
K14: W 1.5 | Q 1.63 | N 1.74 | A 1.96 | R 1.83 | T 1.61 | P 3.03 | G 1.91 | E 1.88 | D 1.91
W7: H 2.83 | M 2.36 | E 4.3 | N 4.06 | L 2.03 | V 2.44 | G 3.22 | D 4.15 | F 2.91
E20: G 2.13 | Q 2.23 | N 2.08 | K 1.93 | W 2.81 | F 2.34 | M 1.68 | P 3.09 | H 1.26 | S 1.75 | T 1.48 | D 1.56 | L 2.12
V17: N 4.01 | D 4.56 | E 4.81 | G 3.17 | R 3.11 | C 1.92 | L 2.34 | Q 3.97 | S 3.21 | I 2.54 | F 1.78
T12: I 1.54 | K 2.6 | F 1.4 | S 2.28 | Q 1.6 | E 3.43 | N 2.79 | D 3.56 | Y 1.49 | V 2.03 | R 2.59 | H 1.35
L15: N 4.18 | T 3.67 | Y 1.84 | E 4.54 | A 3.7 | P 3.82 | V 2.53 | F 2.18 | W 2.07 | S 4.04 | R 3.9 | H 3.54
Q8: K 1.38 | Y 1.56 | N 2.26 | R 2.88 | D 1.24 | G 3.19 | S 3.33 | M 2.09 | P 2.49 | E 2.26
S10: D 3.02 | H 1.04 | V 2.92 | Q 1.9 | N 1.6 | T 1.99 | E 3.06 | R 2.08 | C 2.18 | G 1.01
D9: N 2.92 | V 2.09 | E 1.5 | R 3.52
D18: M 1.36 | K 1.98 | A 4 | C 2.22 | S 1.52 | P 3.1 | N 1.8 | I 4.08 | H 1.08
T6: A 1.74 | D 2.37 | E 2.62 | S 2.96 | Q 2.03 | W 1.1 | C 1.92 | K 3.73
A3: Y 2.5 | K 1.65 | P 1.13 | D 1.53 | V 1.41 | C 2.55 | M 2.51 | H 1.39 | I 1.09
L21: N 2.07 | P 3.99 | W 1.72 | E 1.62 | D 2 | K 2.02 | H 2.84 | M 2.65 | A 2.01 | C 1.75 | F 1.6 | Y 1.62
G4: L 2.34 | F 2.26 | E 2.58 | P 2.12 | C 2.02 | K 2.63 | S 2.01 | N 2.05 | Y 3.85 | M 1.35 | R 1.93 | A 1.8 | V 2.22 | I 2.38 | Q 1.43
D11: G 1.18 | R 1.13 | A 2.27 | N 2.14 | K 1.53 | I 3.92
G24: A 2.47 | T 1.73 | S 2.51 | E 1.71 | D 1.8 | K 2.88 | Q 2.53
R5: F 1.74 | T 1.46 | C 1.13 | N 2.74 | H 3.25 | A 1.95 | Y 2.33 | W 2.76 | Q 2.05 | E 2.67 | P 1.84 | K 2.1 | L 2.27
G2: S 1.84 | L 1.74 | Y 2.53 | K 3.03 | T 4.39 | D 2.53 | E 1.91 | C 3.68 | I 1.28 | R 2.06 | V 1.39 | P 2.31 | Q 2.69 | H 1.07
S22: H 1.7 | E 2.33 | W 1.47 | Q 2.61 | C 1.85 | F 1.79 | L 1.89 | I 1.55 | D 2.51 | Y 2.35 | N 3.21
D1: W 2.93 | N 1.32 | H 2.29 | Q 1.53 | G 1.68 | T 3.05
L19: G 4.45 | M 3 | N 3.75 | T 4.11 | C 2.8 | V 2.27 | E 4.55 | Y 3.19 | F 2.43 | I 2.03 | D 4.31 | S 4
V13: T 2.44 | E 3.95 | M 2.77 | I 1.06 | L 2.07 | R 2.7 | K 2.18 | C 2.04 | P 3.82
L16: M 2.02 | V 1.42 | K 4.25 | Q 3.31 | E 3.69 | C 1.99 | T 3.66 | N 3.94 | R 2.98 | D 3.52 | Y 1.82 | G 3.57
Y23: E 1.85 | H 1.77 | S 1.56 | K 3.9 | N 1.45 | G 2.6 | D 1.91 | R 2.15 | F 1.03 | M 5.21 | I 1.36
